Measured values reported in paper PMC6265326, “Structure of the hyperosmolality-gated calcium-permeable channel OSCA1.2” (Nature Communications, 2018).

Target: the molecule itself
Assay: cryo-EM structure; single-particle cryo-EM of purified AtOSCA1.2 in 25 mM HEPES pH 7.4, 150 mM NaCl, 0.1% digitonin; 3.68 Å

B1: OSCA1.2 from Arabidopsis thaliana (AtOSCA1.2) (natural protein, UniProt Q5XEZ5 1-771, looked up)
chain: MATLQDIGVSAGINILSAFVFFIIFAVLRLQPFNDRVYFSKWYLKGLRSSPARGGAFAQRFVNLDFRSYMKFLNWMPEALKMPEPELIDHAGLDSVVYLRIYWLGLKIFTPIAVLAWAVLVPVNWTNNTLEMAKQLRNVTSSDIDKLSVSNIPEYSMRFWTHIVMAYAFTIWTCYVLMKEYETIANMRLQFVASEARRPDQFTVLVRNVPPDADESVSELVEHFFLVNHPDHYLTHQVVCNANKLADLVKKKKKLQNWLDYYQLKYARNNSQRIMVKLGFLGLWGQKVDAIEHYIAEIDKISKEISKEREEVVNDPKAIMPAAFVSFKTRWAAAVCAQTQQTRNPTQWLTEWAPEPRDVFWSNLAIPYVSLTVRRLIMHVAFFFLTFFFIVPIAFVQSLATIEGIVKAAPFLKFIVDDKFMKSVIQGFLPGIALKLFLAFLPSILMIMSKFEGFTSISSLERRAAFRYYIFNLVNVFLASVIAGAAFEQLNSFLNQSANQIPKTIGVAIPMKATFFITYIMVDGWAGVAGEILMLKPLIMFHLKNAFLVKTDKDREEAMDPGSIGFNTGEPRIQLYFLLGLVYAPVTPMLLPFILVFFALAYIVYRHQIINVYNQEYESAAAFWPDVHGRVIAALVISQLLLMGLLGTKHAALAAPFLIALPVLTIGFHHFCKGRYEPAFIRYPLQEAMMKDTLETAREPNLNLKGYLQNAYVHPVFKGDEDDYDIDDKLGKFEDEAIIVPTKRQSRRNTPAPSIISGDDSPSLPFSGKLV
notes: OSCA1.2 (alias CSC1), Arabidopsis thaliana, full length, 771 amino acids; Homodimer in the cryo-EM structure; 683 residues were modelled and the 54 carboxyl-terminal residues are missing from the model; also called CSC1; source: Sf-9 insect cells (baculovirus), purified (digitonin, Ni-NTA, Superose 6 SEC)
stoichiometry N: 2
